Numbering of substitutions follows the chain as printed. Names and notes keep the numbering of the source.
B1: WT: wild-type citramalate synthase CimA from M. jannaschii (SEQ ID NO:89) (protein, listed as Methanocaldococcus jannaschii)
chain: MMVRIFDTTLRDGEQTPGVSLTPNDKLEIAKKLDELGVDVIEAGSAITSKGEREGIKLITKEGLNAEICSFVRALPVDIDAALECDVDSVHLVVPTSPIHMKYKLRKTEDEVLETALKAVEYAKEHGLIVELSAEDATRSDVNFLIKLFNEGEKVGADRVCVCDTVGVLTPQKSQELFKKITENVNLPVSVHCHNDFGMATANTCSAVLGGAVQCHVTVNGIGERAGNASLEEVVAALKILYGYDTKIKMEKLYEVSRIVSRLMKLPVPPNKAIVGDNAFAHEAGIHVDGLIKNTETYEPIKPEMVGNRRRIILGKHSGRKALKYKLDLMGINVSDEQLNKIYERVKEFGDLGKYISDADLLAIVREVTGKLVEEKIKLDELTVVSGNKITPIASVKLHYKGEDITLIETAYGVGPVDAAINAVRKAISGVADIKLVEYRVEAIGGGTDALIEVVVKLRKGTEIVEVRKSDADIIRASVDAVMEGINMLLN
B2: CimA1: CimA variant with three amino acid substitutions (Ile47Val, Lys435Asn, Val441Ala) (protein, UniProt Q58787 1-491, looked up, variant I47V K435N V441A)
(R)-citramalate synthase CimA: B1 chain with I47V, K435N, V441A
B3: IPMS (G462D): feedback insensitive mutant of isopropylmalate synthase (leuA gene product) (protein, UniProt P09151 2-523, looked up, variant G462D)
2-isopropylmalate synthase: SQQVIIFDTTLRDGEQALQASLSVKEKLQIALALERMGVDVMEVGFPVSSPGDFESVQTIARQVKNSRVCALARCVEKDIDVAAESLKVAEAFRIHTFIATSPMHIATKLRSTLDEVIERAIYMVKRARNYTDDVEFSCEDAGRTPIADLARVVEAAINAGATTINIPDTVGYTMPFEFAGIISGLYERVPNIDKAIISVHTHDDLGLAVGNSLAAVHAGARQVEGAMNGIGERAGNCSLEEVIMAIKVRKDILNVHTAINHQEIWRTSQLVSQICNMPIPANKAIVGSGAFAHSSGIHQDGVLKNRENYEIMTPESIGLNQIQLNLTSRSGRAAVKHRMDEMGYKESEYNLDNLYDAFLKLADKKGQVFDYDLEALAFIGKQQEEPEHFRLDYFSVQSGSNDIATAAVKLACGEEVKAEAANGNGPVDAVYQAINRITEYNVELVKYSLTAKGHGKDALDQVDIVANYNGRRFHGVGLATDIVESSAKAMVHVLNNIWRAAEVEKELQRKAQHNENNKETV
B4: WT IPMS: wild-type isopropylmalate synthase, the E. coli leuA gene product (protein, UniProt P09151 2-523, looked up)
2-isopropylmalate synthase: B3 2-isopropylmalate synthase with D461G

How the values were obtained:
[1] = system: wild-type E. coli strain (JCL16); assay: isobutanol tolerance of E. coli
Source text: Non-native hosts such as E. coli lack tolerance to high alcohols. Isobutanol is as toxic as 1-butanol to microorganisms, and the native 1-butanol producers can tolerate 1-butanol concentration up to about 2%. To show the potential for improving tolerance, in vitro evolution by the sequential transfer of cultures was used to enrich for strains with mutations which increase isobutanol tolerance. […] Other strategies such as gTME can be used for further improvement of tolerance.

KS145 [2] = assay: 1-Propanol and 1-butanol production with the selected CimA mutants (citramalate pathway); format: cell-based, E. coli; conditions: 30° C. for 40 h; for Production of 1-Butanol / Production of 1-Propanol: KS145 with pSA55 and pSA63 (cimA-leuABCD) or its variations; for 1-Butanol change (fold) relative to the strain containing wild-type CimA / 1-Propanol change (fold) relative to the strain containing wild-type CimA: KS145 with pSA55 and pSA63 variations
Method: Medium and cultivation for 1-propanol and 1-butanol production. M9 medium containing 36 g/L glucose, 5 g/L yeast extract, 100 μg/ml ampicillin, 30 μg/ml kanamycin and 1000th dilution of Trace Metal Mix A5 (2.86 g H3BO3, 1.81 g MnCl2.4H2O, 0.222 g ZnSO4.7H2O, 0.39 g Na2MoO4.2H2O, 0.079 g CuSO4.5H2O, 49.4 mg Co(NO3)2.6H2O per liter water) was used for cell growth. Preculture in test tubes containing 3 ml of medium was performed at 37° C. overnight on a rotary shaker (250 rpm). Overnight culture was diluted 1:100 into 20 ml of fresh medium in a 250 ml screw cap conical flask. Cells were grown at 37° C. for 3 hr, followed by adding 0.1 mM IPTG. Cultivation was performed at 30° C. on a rotary shaker (250 rpm). Gas chromatography-flame ionization detector and high-performance liquid chromatography analyses were performed.
The citramalate pathway was then used to enhance the production of 1-propanol and 1-butanol (FIG. 13). An E. coli strain (KS145) auxotrophic for L-isoleucine, leucine, and valine (ΔilvI and ΔilvB). was transformed with pSA63 (or other plasmids containing variants of cimA) and pSA55 (PLlacO1::kivd-ADH2). The deletions of ilvI and ilvB (FIG. 13) were introduced for two reasons. First, the deletions eliminated the native substrate, 2-ketoisovalerate, for the leuABCD pathway, thus reducing the competitive substrate inhibition. Second, these deletions eliminated the production of 2-keto-3-methyl-valerate and 2-keto-4-methyl-pentanoate, which are competing substrates for Kivd. The strain expressing the wild-type cimA gene (KS145/pSA63/pSA55) produced 302 mg/liter 1-propanol and 18 mg/liter 1-butanol after 40 h (FIG. 60). KS145 with pSA55 only, where Kivd utilizes endogenous 2-keto acids, produced 40 mg/liter 1-propanol and 10 mg/liter 1-butanol under the same condition. KS145 without pSA55 and pSA63 produced neither 1-propanol nor 1-butanol (FIG. 60). Note that the yeast extract was added to the medium to boost the cell density.
1-Propanol and 1-butanol production was tested with the selected CimA variants in KS145 by replacing pSA63 with corresponding plasmids (Table 19) containing various cimA mutants. […] The production of 1-propanol and 1-butanol from the strain with CimA2 increased 3.9- and 4.3-fold, respectively, compared to the strain with the wild-type CimA.

KS145 [3] = assay: as above; format: cell-based, E. coli; conditions: ΔilvI ΔilvB strain with pSA63 and pSA55, after 64 hr
JCL260 [4] = assay: α-keto acid production with IPMS variants; format: cell-based, E. coli
Method: All α-keto acid experiments were done under oxygen ‘rich’ conditions unless otherwise noted. For oxygen rich experiments, 10 mL cultures in 250 mL baffled shake flasks were inoculated 1% from 3 mL overnight cultures in LB. For oxygen poor experiments, 10 mL cultures were inoculated in 125 mL screw caps as previously described. All cultures were grown at 37° C. for 4 hours and induced with 1 mM IPTG and harvested after 18 hrs of growth at 30° C.
For other secreted metabolites, filtered supernatant was applied (20 ul) to an Agilent 1100 HPLC equipped with an auto-sampler (Agilent Technologies) and a BioRad (Biorad Laboratories, Hercules, Calif.) Aminex HPX87 column (5 mM H2SO4, 0.6 ml/min, column temperature at 65° C.). Glucose was detected with a refractive index detector, while organic acids were detected using a photodiode array detector at 210 nm. Concentrations were determined by extrapolation from standard curves.
In order to investigate this hypothesis, the production of the α-keto acid precursors, the substrates for kivd, to isobutanol and 3-methyl-1-butanol were examined. […] In hopes of increasing the KIC pool, the expression level of leuA was increased by changing the RBS from its native sequence to a more consensus sequence.
Isopropylmalate synthase (IPMS) catalyzes the condensation of KIV with acetyl-CoA. […] To relieve the feedback inhibition of the leuA gene product, two strategies were employed. A feedback insensitive mutant of IPMS (IPMS (G462D)) was employed. Second, the final step in the L-leucine synthesis pathway was inactivated by deleting ilvE (branched-chain amino acid transferase) and tyrB (tyrosine aminotransferase), two isozymes responsible for converting α-ketoisocaproate into L-leucine.

JCL260 [5] = format: cell-based, E. coli; conditions: for 3-methyl-1-butanol final titer / isobutanol accumulation: ilvE+ tyrB+ background
Method: Final production experiments were conducted as previously described, except that 20 mL modified M9 media containing 5 g/L of glucose was used in a 250 mL screw cap flask.
Metabolite Detections. The produced alcohol compounds were quantified by a gas chromatograph (GC) equipped with flame ionization detector. The system consisted of model 5890A GC (Hewlett-Packard, Avondale, Pa.) and a model 7673A automatic injector, sampler and controller (Hewlett-Packard). Supernatant of culture broth ([…]) was injected in split injection mode (1:15 split ratio) using methanol as the internal standard.
The separation of alcohol compounds was carried out by A DB-WAX capillary column (30 m, 0.32 mm-i.d., 0.50 μm-film thickness) purchased from Agilent Technologies (Santa. Clara, Calif.). GC oven temperature was initially held at 40° C. for 5 min and raised with a gradient of 15° C./min until 120° C. It was then raised with a gradient 50° C./min until 230° C. and held for 4 min. Helium was used as the carrier gas with 9.3 psi inlet pressure. The injector and detector were maintained at 225° C. 0.5 ul supernatant of culture broth was injected in split injection mode with a 1:15 split ratio. Methanol was used as the internal standard.

| Molecule | Production of 1-Butanol (KS145 [2]) | Production of 1-Propanol (KS145 [2]) | 1-Butanol change (fold) relative to the strain containing wild-type CimA (KS145 [2]) | 1-Propanol change (fold) relative to the strain containing wild-type CimA (KS145 [2]) | KIC production (JCL260 [4]; ΔilvE background) | KIC production (JCL260 [4]; ΔilvE ΔtyrB background) | 3-methyl-1-butanol final titer (JCL260 [5]) | isobutanol accumulation (JCL260 [5]) | also measured |
| --- | --- | --- | --- | --- | --- | --- | --- | --- | --- |
| CC(C)CO [isobutanol] |  |  |  |  |  |  |  |  | isobutanol concentration that inhibited the strain [1]: 1.5%; isobutanol concentration in the presence of which mutants grow ([1]; mutants after 5 rounds of culture transfers with increasing isobutanol concentrations): 2% |
| B1 | 18 mg/L | 302 mg/L | 1 fold | 1 fold |  |  |  |  | 1-butanol produced (KS145 [3]): about 21 mg/L; 1-propanol produced (KS145 [3]): about 350 mg/L |
| B2 | 22 mg/L | 695 mg/L | 1.2 fold | 2.3 fold |  |  |  |  |  |
| B3 |  |  |  |  | 2.31 g/L | 1.95 g/L | 459 mg/L | 15 mg/L | KIC final concentration (JCL260 [4]): 1.61 g/L; KIV accumulation (JCL260 [4]; JCL260 background, ilvE+ tyrB+): 0.17 g/L |
| B4 |  |  |  |  | 0.53 g/L | 1.23 g/L | 308 mg/L | 169 mg/L | KIV final concentration (JCL260 [4]; ΔilvE background): 0.40 g/L; KIV final concentration (JCL260 [4]; ΔilvE ΔtyrB background): 0.37 g/L; 3-methyl-1-butanol final concentration (JCL260 [5]; ΔilvE ΔtyrB strain): 553 mg/L; isobutanol (JCL260 [5]; ΔilvE ΔtyrB strain): 42 mg/L |

— patent US9695426B2, “Biofuel production by recombinant microorganisms” (The Regents of the University of California, priority 2007, dated 2017)
